Like-named read-outs stand apart in the source and are kept apart here.
Biological target: endogenous RelA in A549 cells (Homo sapiens) (UniProt Q04206)
Details: two-step ChIP

Sequence of endogenous RelA in A549 cells (Homo sapiens) (Q04206 whole entry): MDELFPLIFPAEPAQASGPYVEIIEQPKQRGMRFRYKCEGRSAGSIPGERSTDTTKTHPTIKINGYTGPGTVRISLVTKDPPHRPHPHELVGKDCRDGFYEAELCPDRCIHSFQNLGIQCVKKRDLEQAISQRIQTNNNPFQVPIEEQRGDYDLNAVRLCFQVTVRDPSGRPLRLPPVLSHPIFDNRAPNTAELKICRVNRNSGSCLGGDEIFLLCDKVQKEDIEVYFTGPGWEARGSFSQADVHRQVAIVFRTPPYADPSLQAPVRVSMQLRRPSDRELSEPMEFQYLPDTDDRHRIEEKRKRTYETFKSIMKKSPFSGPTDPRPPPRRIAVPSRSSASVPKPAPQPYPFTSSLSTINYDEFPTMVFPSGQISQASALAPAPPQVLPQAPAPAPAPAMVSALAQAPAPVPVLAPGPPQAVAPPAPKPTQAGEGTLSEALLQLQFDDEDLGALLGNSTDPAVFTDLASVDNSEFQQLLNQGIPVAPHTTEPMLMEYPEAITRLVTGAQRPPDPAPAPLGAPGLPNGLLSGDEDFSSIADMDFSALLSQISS

Substance: Gro-beta promoter chromatin
- binding signal (fold increase with TNF) (reduced by transfected P028F4 (4 uM)): 3.5

Substance: TNFAIP3/A20 promoter chromatin
- binding signal (fold increase with TNF) (reduced to less than 2-fold by P028F4): 3.5

From patent US20120263651
